Measured values reported in the nanobody polyreactivity screen of Harvey et al. (2022).

Experiment: yeast display, Sf9 membrane polyspecificity reagent, FACS + sequencing; frameworks hold sequencing errors
Procedure, shortened: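 Galactose-induced (36–48 hours) yeast carrying a synthetic nanobody display library were exposed to 10% biotinylated, detergent-solubilized Sf9 membrane reagent at 4 °C for 1 hour. FACS followed streptavidin microbead enrichment, using low and high (top ~1%) gates for expression (anti-HA) and reagent binding (streptavidin). Colony PCR, MiSeq 2 × 250 sequencing and CDR-length filtering followed. Labels for polyreactivity reflect the gate of origin.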

| Sequence | polyreactivity (PSR sort gate) |
| --- | --- |
| QVQLVESGGGLVQAGGSLRLSCAASGSIFDYYAMGWYRQAPGKERELVAAISRSGTTNYADSVKGRFTISRDNAKNTVYFQMNSLKPEDTAVYYCNARTRGYRYTSALYYWGQGTQVTVSS | high polyreactivity |
| QVQLQESGGGLVQAGGSLRLSCAASGSIFLFYTMGWYRQAPVKEREFVAGITLGTTTYNADSVKGRFTISRDNVKNTVYLQMNSLKPEDTAVYYCNAVGDARYNYWGQGTQVTVSS | high polyreactivity |
| QVQLVESGGGLVQAGGSLRLSCAASGIIFWRYAMGWYRQAPGKERELVASISSSGGRTYYADSVKGRFTISRDNAKNTVYLQMNSLKPEDTAVYYCAARGPYGYDLLYYWGQGTQVTVSS | high polyreactivity |
| QVQLVESGGGLVQAGGSLRLSCAASGNIFEYYAMGWYRKAPGKERELVATITSGGSTNYADSVKGRFTISRDNAKNTVYLQMNSLKPEDTAVYYCNADIISVSVYYFIVEYDYWGQGTQVTVSS | low polyreactivity |
| QVQLVESGGGLVQAGGSLRLSCAASGRIFFWYAMGWYRQAPGKERELVAGITSGGSTNYADSVKGRFTISRDNAKNTVYLQMNSLKPEDTAVYYCNTVDSIPIGSGLYYYWGQGTQVTVSS | low polyreactivity |
| QVQLVESGGGLVQAGCSLGISCAASGSTVRGNAMGWYRQAPGKEREFVAAITVSGGSTYYADSVKGRFTLSRDNAKINVYVEMNSLKPEDNAVYYCAASVYKGWPTHYDYWGQGTQVTVSS | high polyreactivity |
| QVQLVESGGGLVQAGGSLRLSCAASGLTFRVNDMGWYRQAPGKERELVATISSGGSTYYADSVKGRFTISRDNAKNTVYLQMNSLKPEDTAVYYCATNSEGQESNSYYVWMGYWGQGTHVTVSS | low polyreactivity |
| QVQLVESGGGLVQAGGSLRLSCAASGRIFAPYAMGWYRQAPGKERELVAAIRISGDSTYYADSVKGRFTISRDNAKNTVYLQMNSLKPEDTAVYYCAAEYYILHWFGYAGYPAYNYWGQGTQVTVSS | high polyreactivity |
| QVQLVESGGGLVQAGGSLRLSCAASGIIFYAYAMGWYRQAPGKETELVAAITFSAVSTNYADSVKGRFTISRDYAKNTVYLQMNSLKPEDTAVYYCAAEAYKHGVWDYDYWGQGTQVTVSS | low polyreactivity |
| QVQLVESGGGLVQAGGSLRLSCAASGLTFQWYAMGWYRQAPGKERELVAAISSRGGSTYYADSVKGRFTISRDNAKNTVYLQMNSLKPVDTAVYYCAVYTIGYLAWYQKFDYWGQGTQVTVSS | high polyreactivity |
| QVQLVESGGGLVQAGGSLRLSCAASGSIFGVYAMGWYIPAPGTERELVAAISRGGSTNDADSVKGRFTISRDNEKNTVYLQMNSLKPEDTAVYYCNAVPVLGGYGYQWGYDYWGQGTKVTVSS | low polyreactivity |
| QLQLQESGGGLVQAGGSLRLSCAASGPITRRSTMGWYRQAPRKVRELVTAITRGTNTNYADSVKGRFTISRDNAKNTEYLQMNSLKPEDTAVYYCAAYGVLKPSRGDAVFLRYLGQGTQVTVSS | low polyreactivity |
| QVQLVESGGGLVQAGGSLRLSCAASGSTFVGYTMGWYIQAPGKERELVAAISRGGGSTYYADSVKGRFTISRDNAKNTVYLQMNSLKPEDTAVYYCAATGFYARLSSIYYYWGQGTQVTVSS | high polyreactivity |
| QVQLVESGGGLVQAGGSLRLSCAASGRIFKRYDMGWYRQAPWKERELVAAITGTGGSTYYADSVKGRFTISRDNAKNTVYLQMNSLKPEDTAVYYCAARLYNTYSGFAFGYWGQGTQVTVSS | high polyreactivity |
| QVQLVESGGGLVQAGGRLRLSCAASGFIFAWYAMGWYRQAPGKEMELVAAITWSAGSTYYADSVKGRFTISRDNAKNTVFLQMNSLKPEVTAVYYCAADAWYYSIYRGGDFWGQGTQVTVSS | low polyreactivity |
| QVQLVESGGGLVQAGGSLRLSCAASGRIFARNTMGWYRQAPGKERELVAAISWGGGRTYYADSVKGRFTISRDNAKNTVYLQMNSLKPEDTAVYYCAAETLQIPRGEYWGQGTQVTVSS | low polyreactivity |

| Sequence | polyreactivity (PSR sort gate) |
| --- | --- |
| QVQLVESGGGLVQAGGSLRLSCAASGITFYTYAMGWYRQAPGKERELVAAISTGGSTYYADSVKGRFTISRDNAKNTVYLQMNSLKPEDTAVYYCAARTFSYPRRAYYYWGQGTQVTVSS | high polyreactivity |
| QVQLEESGGGLVQAGGSLRLSCAASGFIFLDYAMGWYRQAPGKERELVAAISSRGARTYYADSVKGRFTISRDNAKNTVYLQMNSLKPEDTAVYYCAARGPLDRYGYWGQGTQVTVSS | high polyreactivity |
| QVQLVESGGGLVQAGGSLRLSCAASGSIFTFYAMGWYRQAPGKERELVATITISTGSTYYADSVKGRFTISRDNAKNTVYFQMNSLKPEDTAVYYCNAYISRRGKRGYNYWGQGTQVTVSS | high polyreactivity |
| QVQLVESGGGLVQAGGRLRLSCAASGSIFDLNAMGWYRQAPGKERELVAAISSGGGTYYADSVKGRFTISRDNAKNTVYLQMNSLKPEDTAVYYCNRVTRWTYNYWGQGTQVTVSS | high polyreactivity |
| QVQLVESGGGLVQAGGSLRLSCAASGSTFYWYAMGWYIQAPGKERELGAAIRWSGDRTYYADSVKGLFTISRDNAKNTVYLQMNSLKPEDTAVYYCAAGKGRPVGGRAYYYWGQGTQVTVSS | high polyreactivity |
| QVQLVESGGGLVQAGGSLRLSCAASGSTFLDNAMGWYRQAPGKERELVASITSSGGNTYYADSVKGRFTISRDNAKNTVYLQLNSLTPEDTAVYYCAADAASYWRYNSANYDYDYWGQGTQVTVSS | low polyreactivity |
| QVQLVESGGGLVQAGGSLRLSCAASGSTLPANSMGWYRQAPGKERELVAAITITTDGSTYYADSVKGRFTISRDNAKNTVYLQMNSLKPEDTAVYYCAVARYRYHIRKMGYWGQGTQVTVSS | low polyreactivity |
| QVQLVESGGGLVQAGGSLRLSCAASGITFYEYAMGWYRQAPGKERELVASISGSGGSTFYADSVKGRFTISRDNAKNTVYLQMNSLKPEDTAVYYCAAYKEPYYEEYGYWGQGTQVTVSS | low polyreactivity |
| QVQLVESGGGLVQAGGSLRLSCAASGSTFALNAMGWYRQAPGKERELVADINYIGDSTYYADSVKGRFTISRDNAKNTVYLLMNSLKPEDTAVYYCAAKSIIRPYAPRRDDMDYWGQGTQVTVSS | low polyreactivity |
| QVQLVESGGGLVQAGGSLRLICAASGYIFYAYALGWYRQAPGKERELVAAITDNGVSTFYADSVKGRFTISRDNAKNTVYLHMKSLKPEETAVYYCATSSTHSRGDEYWGQGTQVTVSS | low polyreactivity |
| QVQLVESGGGLVQAGGSLRLSCAASGRTFGWNVMGWYRQAPGKERELVAAISGSGGSTYYADSVKGRFTISRDNAKNTVYLQMNSLKPEDTAVYYCAALYGPGREYDYWGQGTQVTVSS | low polyreactivity |
| QVQLVESGGGIVQAGGSLRLSCAASGYTFTGYSMGWYRQAPGKEREFVAGITWRTGRTYYADSVKGRFTISRDNAKNNVYLQMNSLKREDTAVYFCYKDHQRRYYWSYDYWGQGTQVTVSS | low polyreactivity |
| QVQLVESGGGLVQAGGSLRLSCAASGSTFWYNAMGWYRQAPGKERELVARISYSGGSTYYADSVKGRFTISRDNAKNTVYLQMNSLKPEDTAVYYCAARRPYKYDYWGQGTQVTVSS | high polyreactivity |
| QVQLVESGGGLVQAGGSLRLSCAASGRIITEYVTGCYTQAPGKERELDAAAITRGGSTNYADSVKGRFTLSRDNAKNTVYLQKNSLIPEDTAVYHCNKDDWPVSRQLYTGKHDSWGQGTQVTVSS | low polyreactivity |
| QVRLVESGGGLVQAGGSLRLSCAASGFIFRNNAMGWYRQAPGKERELVAVISFSGGSTYYADSVKGRFTISRDNAKNTVSLQMNSLKPEDTAVYYCTAKGWYYTRRSDYWGQGTQVTVSS | low polyreactivity |
